Consider 31 sequences from the DeepSol protein solubility set.

This data set in a line: soluble on expression in E. coli; label from the status in PepcDB or PDB records.
Take “EQISISSPRKRIYHNILETIGGTPLVELHGVTEHPRIKKGTRILVKLEYFNPMSSVKDRVGFNIVYQAIKDGRLKPGMEIIESTSGNTGIALCQAGAVFGYRVNIAMPSTMSVERQMIMKAFGAELILTEGKKGMPGAIEEVNKMIKENPGKYFVANQFGNPDNTAAHHYTANEIWEDTDGEVDIVVSAVGTSGTVIGVAEKLKEKKKGIKIIAVEPEESAVLEGKAKGPHGIQGIGAGFIPDIYKKEFVDEIIPIKTQDAWKMARAVVKYDGIMCGMSSGAAILAGLKEAEKPENEGKTIVIIVPSCGERYLSTDLYKIKDEGTKIQILDSLLNEHH”: the “soluble on expression in E. coli” value was “soluble”.
To “ERFQLLMTQIGLQDVTTYEEFTKDAKIEKLVADKKNKTWQFHLHVPQIFPAALFHMMDVGMKRAFSQIAETEMQIVPENQTINETLIQEYWNLIVEPIGKQSPMIGKLLMEQKPTFKEPHFIEVAVHNDMEEATIQQRFQAKIIEN” belongs “not soluble”; to “ESCDLEVYDRVNQSDQLCVISGQGNKRVSFYVTEGVVRNLSLGDKMTVEKEGNAYEGVINDISTMVDDSNGLFKIKADLAQADSVATGSVVKVKVISGRSDNVMTVPVDAIYYDGGVGNVYVYEDGAVHKKEVEVGLYDSELAEIRSGLAADELVISTWSSQLYEGSTVNLKSEGGESAPAGKEPGTGRTETSAAAE”, “not soluble”.
To “ESDSVEFNNAISYVNKIKTRFLDHPEIYRSFLEILHTYQKEQLHTKGRPFRGMSEEEVFTEVANLFRGQEDLLSEFGQFLPEAKR” belongs “soluble”; to “ESRSQISRRNQDMLLSVLDLEKMTVDDIMVPRSEIIGIDINDDWKSILRQLSHSPHGRIVLYRDSLDDAISMLRVREAWRLMSEKKEFTKETMLRAADEIYFVPEGTPLSTQLVKFQRNKKKVGLVVNEYGDIQGLVTVEDILE”, “not soluble”.
To “EVQLQASGGGSVQAGQSLRLSCATSGATSSSNCMGWFRQAPGKEREGVAVIDTGRGNTAYADSVQGRLTISLDNAKNTLYLQMNSLKPEDTAMYYCAADTSTWYRGYCGTNPNYFSYWGQGTQVTVSSRGRHHHHHH” belongs “soluble”; to “EVRALQLEYDQSMEAYQKLVEISPDAIYIQSMEGEILFANPSGIKLLGATDLNELVGLSVMNFIHPDYLNVVENRIGDAENLSGNISEQKAVTLKGEILDIEVVSVAFSYNGKAAEQVIVRNVT”, “not soluble”.
As for “EVVKRDRIRNKDRPAMQLYQPGARSRNRLCPPDDSTKSGDSAAERKQESGISHRKEGGEE”, the “soluble on expression in E. coli” value was “soluble”.
Under “EVVVVGYSTQKKESLTGALQTVKSDKLKDITTPSVENMLNGKVPGVYVAPGSGQPGSGGAVVIRGQATLSGTTAPLWVIDGVIVGSNAGALNPSDIETMTILKDAASTAIYGSQGANGVILVTTKNGK” stands “not soluble”; under “EYRHLVLNQLRNMGGTRFFVSLNNHQIDVDPLPESERKTLVINQVREVLESELSGIPNIEVEFTQRDKLKVFNNELPIDELPLLWAHYSLSFGDLNPPILVMQVEVAQNEWFYLAAVLPAPYINLETNYFELRQ”, “not soluble”; under “FCNAFTPVKAKEVKALILDFLHTNKITLQREIESSFITSAIIAHTGIDAFSISLLLDKNK”, “not soluble”.
Regarding “FDLNDFLEQKVLVRMEAIINSMTMKERAKPEIIKGSRKRRIAAGSGMQVQDVNRLLKQFDDMQRMMKKM”, the “soluble on expression in E. coli” value was “soluble”.
As for “FDSFKIEGRAKNADYVMRTTKIYREAIDSVLDGSYYDKLEYFKKELQKVYNRSYDTGFYFRDINKNHDFQYEIEGNASKYRKIEIGRVVNFYKKVSVAEIELWHDLKIGDTILIIGKTTGCVEEVVKSMQINHKDVEIAKKGERVGVKLNHLVREGDRVYLLKET”, the “soluble on expression in E. coli” value is given as “not soluble”.
Under “FEELAKQIKLAKTPRLLISLKAEVPMAIGWLKPVVLLPASMVTGLNAAQLEMLILHELAHIRRHDYLVNFLQTLIELLFFFHPSVHWIGKQMRNEREYCSDDIAVQHCGDAIAYAHTLTDTASLCAKNHFHTIPTMAMAASGGDL” stands “not soluble”; under “FNGHSLKAYPRMTFQLTIKGGNEMNYRIEEKEAFRIVGIKKRVPIIFKGINPEIASMWESLDEKAINKLKELSNVAPSGLISASTNFSEGRTEENGELDHYIGAATTKRCPDNFSRLEVPASTWAVFESIGPFPDTLQEVWGRIYSEWFPSSNYEQIEGPEILWNEHKDVTSPSFKSEIWIPITKK”, “not soluble”; under “FSDISSLQRFVKFSQSDWLVEMLAQERFTSHFQPIVSMKNTSEIYGYEALLRGLDEQGNLIPPQPIVELATEAGLLPQLDRIARLSTIAQFSSHQVSGQIFINFAPTAVYDPASCLKSTVEAIDQAGISHERVVFEVVESDSPQDLDHLKAVLKYYRDAGFSIALDDLGSGYSSLNLLHQLRPDFIKLDMELIRDVHQDLYKASITEKLLEIAQKLNIRTVAEGIECIEELNWVQERGATFAQGYLIAKP”, “not soluble”.
To “FSNAPISAEEQMIRAFVKSVEYMSPRKIGALVAIQRVRTLQEYISTGIPLDAKISAELLINIFIPNTPLHDGAVIIKEERIAVTSAYLPLTKNTGISKEFGTRHRAAIGLSEVSDALTFVVSEETGGISITYNGRFKHNL” belongs “not soluble”.
Consider “FVRMIFSAEKSVWIQTPYLIPDDSMINALLVAVRSGVDVRIMIPCMPDHPFIYRATQYYANYLHKRGIKIYIYDSGFIHAKTMVIDDELAMVGTTNQDIRSYSLNFEVSTFIYNPDIAWMLAQVFEEDIEKSVLLTDEIIKKQGYWLRFKQNFSRLLSPVL”, for which the “soluble on expression in E. coli” value is listed as “not soluble”.
To “GACEQNEDWVVNEPMQSFEENPEYAPLNTIPDWVSEKVTPKEYELWRTMSSRYEINYSFLKKDISEKRKKEIYDCINNICERIEKGQINKYEGFLNIADEDGTTLSDSQYFGRIATRSPEGGAEYKTNGCTLYTHSLGPYIKAAVTYKKSDDDVTITSSSVYTGSPYLGNDPSFSGASSVSYDKDKKLIAASCSGTLSFKDGSRKVEVTVQKTGFMIP” belongs “soluble”; to “GAHMAGGRSWCLRRVGMSAGWLLLEDGCEVTVGRGFGVTYQLVSKICPLMISRNHCVLKQNPEGQWTIMDNKSLNGVWLNRARLEPLRVYSIHQGDYIQLGVPLENKENAEYEYEVTEEDWETIYPCLSPKNDQMIEK”, “soluble”.
In the case of “GALKRAEELKTQANDYFKAKDYENAIKFYSQAIELNPSNAIYYGNRSLAYLRTECYGYALGDATRAIELDKKYIKGYYRRAASNMALGKFRAALRDYETVVKVKPHDKDAKMKYQECNKIVKQKAFERAIAGDEHKRSVVDSLDIESMTIEDEYSGPKLEDGKVTISFMKELMQWYKDQKKLHRKCAYQILVQVKEVLSKLSTLVETTLKETEKITVCGDTHGQFYDLLNIFELNGLPSETNPYIFNGDFVDRGSFSVEVILTLFGFKLLYPDHFHLLRGNHETDNMNQIYGFEGEVKAKYTAQMYELFSEVFEWLPLAQCINGKVLIMHGGLFSEDGVTLDDIRKIERNRQPPDSGPMCDLLWSDPQPQNGRSISKRGVSCQFGPDVTKAFLEENNLDYIIRSHEVKAEGYEVAHGGRCVTVFSAPNYCDQMGNKASYIHLQGSDLRPQFHQFTAVPHPNVKPMAYANTLLQLGMM”, the “soluble on expression in E. coli” value is given as “soluble”.
Under “GAMADDAAIQQTLAKMGIKSSDIQPAPVAGMKTVLTNSGVLYITDDGKHIIQGPMYDVSGTAPVNVTNKMLLKQLNALEKEMIVYKAPQEKHVITVFTDITCGYSHKLHEQMADYNALGITVRYLAFPRQGLDSDAEKEMKAIWCAKDKNKAFDDVMAGKSVAPASCDVDIADHYALGVQLGVSGTPAVVLSNGTLVPGYQPPKEMKEFLDEHQKMTSGK” stands “soluble”; under “GAMADRDRLRPPLDERSLRDQLIGAGSGWRQLDVVAQTGSTNADLLARAASGADIDGVVLIAEHQTAGRGRHGRGWAATARAQIILSVGVRVVDVPVQAWGWLSLAAGLAVLDSVAPLIAVPPAETGLKWPNDVLARGGKLAGILAEVAQPFVVLGVGLNVTQAPEEVDPDATSLLDLGVAAPDRNRIASRLLRELEARIIQWRNANPQLAADYRARSLTIGSRVRVELPGGQDVVGIARDIDDQGRLCLDVGGRTVVVSAGDVVHLR”, “soluble”.
To “GAMAMSGGLPELGSKISLISKADIRYEGRLYTVDPQECTIALSSVRSFGTEDRDTQFQIAPQSQIYDYILFRGSDIKDIRVVNNHTLP” belongs “soluble”.
Take “GAMAVKVARPCRKIEKWTYLELKGSKANEGVPQAMTAFAEFLNRTGIPINPRFSPGMSMSVPGSEKEFFAKVKELMSSHQFVVVLLPRKDVAIYNMVKRAADITFGVHTVCCVAEKFLSTKGQLGYFANVGLKVNLKFGGTNHNI”: the “soluble on expression in E. coli” value is “soluble”.
To “GAMHTFYGTRLLNPKPVDFALEGPQGPVRLSQFQDKVVLLFFGFTRCPDVCPTTLLALKRAYEKLPPKAQERVQVIFVSVDPERDPPEVADRYAKAFHPSFLGLSGSPEAVREAAQTFGVFYQKSQYRGPGEYLVDHTATTFVVKEGRLVLLYSPDKAEATDRVVADLQALL” belongs “soluble”; to “GAMVVSPAGADRRIPTWASRVVSGLARDRPVVVTKEDLTQRLTEAGCGRDPDSAIRELRRIGWLVQLPVKGTWAFIPPGEAAISDPYLPLRSWLARDQNAGFMLAGASAAWHLGYLDRQPDGRIPIWLPPAKRLPDGLASYVSVVRIPWNAADTALLAPRPALLVRRRLDLVAWATGLPALGPEALLVQIATRPASFGPWADLVPHLDDLVADCSDERLERLLSGRPTSAWQRASYLLDSGGEPARGQALLAKRHTEVMPVTRFTTAHSRDRGESVWAPEYQLVDELVVPLLRVIGKA”, “soluble”; to “GANTTETPVKDVELDGRWDDPIRSAATNCPITVFTDGYLLTLKNASPDRDMTIRITDMAKGGVVYENDIPEVQSAYITISIANFPAEEYKLEITGTPSGHLTGYFTKE”, “soluble”.
To “GATVHELSRDKKKDTVPWFPRTIQELDRFANQILSYGAELDADHPGFKDPVYRARRKQFADIAYNYRHGQPIPRVEYMEEEKKTWGTVFKTLKSLYKTHACYEYNHIFPLLEKYCGFHEDNIPQLEDVSQFLQTCTGFRLRPVAGLLSSRDFLGGLAFRVFHCTQYIRHGSKPMYTPEPDICHELLGHVPLFSDRSFAQFSQEIGLASLGAPDEYIEKLATIYWFTVEFGLCKQGDSIKAYGAGLLSSFGELQYCLSEKPKLLPLELEKTAIQNYTVTEFQPLYYVAESFNDAKEKVRNFAATIPRPFSVRYDPYTQRIEVLDNT” belongs “soluble”; to “GDAFCNPQATMDFLRFKLHQHQREVFAVMMLDSQHRLIEFNEMFFGTIDSASVYPREVVKAVLLCNAAAVIFAHNHPSGCAEPSSADRRITERLIAALATIDVPVLDHIVVADTCVSFAERGLL”, “not soluble”; to “GDYIYADSNNNGVYGDDNDYTFQKTSNKPKYNFGFQASAAWKGFDLSMVWAGAAGFSIYWGATTGYNAASTEWGSTIAQRVAENHYFYNPENPDDPRTNINAKYPRMAYIDGYVQNRHGNTTLWLYKGDYIKLKNLSLGYTLPKNWVSKIAMQNARVYVSAENLLTITGFEGQDPESATGMGYSPFRTIAIGANITF”, “not soluble”.
